Our source for the background-corrected fluorescence values is the supplement of paper PMC9428881.

This series is described as follows: background-corrected fluorescence of 3'-dye-labeled ssDNA relative to brightest sequence (3'-GCGCG) (fraction); higher = brighter dye fluorescence (less quenching). Put shortly:
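Arrays of single-stranded DNA, with a 3' Cy3 or Cy5 dye beside each of 1024 permuted pentamers, were built on glass slides through light-directed phosphoramidite synthesis. They were washed for 2 h at r.t. in acetonitrile and scanned at 532 or 635 nm, once before and once after overnight ethylenediamine/ethanol deprotection. Fluorescence is reported after subtracting unlabeled-oligo background and normalizing to the brightest sequence. Averages cover 10 features per array and at least 3 syntheses.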

± gives the standard error.

With “TTTTTTGCTGATGATGATGCTTTTTTTTTTTTTTTACCCA”, the background-corrected fluorescence (dye: Cy3 (3' terminal)) was found to be 0.462 ± 0.029 and the background-corrected fluorescence (dye: Cy5 (3' terminal)) stood at 0.351 ± 0.019.
In the same order, the values of “TTTTTGCATGATGATGCTGCTTTTTTTTTTTTTTTTCCAA [AACCT]” are 0.536 ± 0.038 and 0.388 ± 0.025.
In the case of “TTTTTGCATCATCATGCGCATTTTTTTTTTTTTTTTGGAT [TAGGT]”, the background-corrected fluorescence is, setting by setting: (dye: Cy3 (3' terminal)) 0.617 ± 0.023; (dye: Cy5 (3' terminal)) 0.458 ± 0.036.
In the same order, the values of “TTTTTTGATGAGCATGCTCATTTTTTTTTTTTTTTCCTAG [GATCC]” are 0.532 ± 0.019 and 0.414 ± 0.023.
For “TTTTTGCATGCTGAGCATGCTTTTTTTTTTTTTTTTACTA [ATCAT]”, in that order: 0.502 ± 0.027 and 0.388 ± 0.028.
For “TTTTTTGAGCATGATGCTGATTTTTTTTTTTTTTTCTCAC [CACTC]”, in that order: 0.391 ± 0.046 and 0.314 ± 0.022.
For the sequence “TTTTTGCATGCTCAGCATGATTTTTTTTTTTTTTTTAGTC [CTGAT]”, the background-corrected fluorescence by setting is: (dye: Cy3 (3' terminal)) 0.492 ± 0.026; (dye: Cy5 (3' terminal)) 0.363 ± 0.023.
Regarding “TTTTTGCATGATCATGATGATTTTTTTTTTTTTTTTCGCC [CCGCT]”, the background-corrected fluorescence worked out at 0.462 ± 0.036 (dye: Cy3 (3' terminal)) and 0.337 ± 0.022 (dye: Cy5 (3' terminal)).
For “TTTTTTGCGCATGCTCATCATTTTTTTTTTTTTTTATAGG [GGATA]”, in that order: 0.628 ± 0.019 and 0.516 ± 0.03.
In the case of “TTTTTTGATGATCATGATCATTTTTTTTTTTTTTTCCGCG [GCGCC]”, the background-corrected fluorescence is, setting by setting: (dye: Cy3 (3' terminal)) 0.961 ± 0.026; (dye: Cy5 (3' terminal)) 0.944 ± 0.034.
In the same order, the values of “TTTTTTCAGCATGATGCTCATTTTTTTTTTTTTTTGTCAG [GACTG]” are 0.546 ± 0.028 and 0.404 ± 0.051.
For “TTTTTTGCTGCTGCTCATCATTTTTTTTTTTTTTTAAAGG [GGAAA]”, in that order: 0.646 ± 0.026 and 0.502 ± 0.032.
For “TTTTTTCAGCAGCATGCTGCTTTTTTTTTTTTTTTGTTAA [AATTG]”, in that order: 0.57 ± 0.032 and 0.446 ± 0.027.
Regarding “TTTTTTCAGCATGATGATCATTTTTTTTTTTTTTTGTCCG [GCCTG]”, the background-corrected fluorescence was determined as 0.54 ± 0.027 (dye: Cy3 (3' terminal)) and 0.429 ± 0.081 (dye: Cy5 (3' terminal)).
In the same order, the values of “TTTTTTCAGCAGCATCATGATTTTTTTTTTTTTTTGTTGC [CGTTG]” are 0.53 ± 0.024 and 0.389 ± 0.025.
For “TTTTTTCATCATCATGCGCATTTTTTTTTTTTTTTGGGAT [TAGGG]”, in that order: 0.617 ± 0.027 and 0.506 ± 0.024.
In turn, “TTTTTTGATGATCATGATGATTTTTTTTTTTTTTTCCGCC” displayed a background-corrected fluorescence (dye: Cy3 (3' terminal)) of 0.445 ± 0.024 and a background-corrected fluorescence (dye: Cy5 (3' terminal)) of 0.33 ± 0.022.
In the same order, the values of “TTTTTTCATGCTCATGATCATTTTTTTTTTTTTTTGAGCG [GCGAG]” are 0.654 ± 0.03 and 0.526 ± 0.059.
For “TTTTTTGATGCTGAGCATGATTTTTTTTTTTTTTTCACTC [CTCAC]”, in that order: 0.399 ± 0.017 and 0.296 ± 0.022.
In the case of “TTTTTTGCTGCTGATGATGATTTTTTTTTTTTTTTAACCC [CCCAA]”, the background-corrected fluorescence turned out to be 0.392 ± 0.021 (dye: Cy3 (3' terminal)) and 0.294 ± 0.016 (dye: Cy5 (3' terminal)).
With “TTTTTTGAGCATGCTCATGATTTTTTTTTTTTTTTCTAGC [CGATC]”, the background-corrected fluorescence runs as follows: (dye: Cy3 (3' terminal)) 0.508 ± 0.033; (dye: Cy5 (3' terminal)) 0.407 ± 0.04.
For “TTTTTGCAGCATGCTCATGCTTTTTTTTTTTTTTTTTAGA [AGATT]”, in that order: 0.6442 ± 0.0061 and 0.531 ± 0.036.
For “TTTTTTCATCATGATGCGCATTTTTTTTTTTTTTTGGCAT [TACGG]”, in that order: 0.603 ± 0.011 and 0.406 ± 0.025.
In the same order, the values of “TTTTTTGCTCATGCTGATGATTTTTTTTTTTTTTTAGACC [CCAGA]” are 0.439 ± 0.034 and 0.331 ± 0.02.
As for “TTTTTGCATGCTGATCATCATTTTTTTTTTTTTTTTACGG [GGCAT]”, the background-corrected fluorescence (dye: Cy3 (3' terminal)) amounted to 0.697 ± 0.037 and the background-corrected fluorescence (dye: Cy5 (3' terminal)) is 0.514 ± 0.04.
For “TTTTTTGCGCATCATGCGCATTTTTTTTTTTTTTTATGAT [TAGTA]”, in that order: 0.615 ± 0.028 and 0.471 ± 0.03.
Take “TTTTTTGCTCAGCATGCGCATTTTTTTTTTTTTTTAGTAT [TATGA]”: the background-corrected fluorescence is, setting by setting: (dye: Cy3 (3' terminal)) 0.554 ± 0.031; (dye: Cy5 (3' terminal)) 0.417 ± 0.028.
In the same order, the values of “TTTTTTGATGCGCATGCTCATTTTTTTTTTTTTTTCATAG [GATAC]” are 0.521 ± 0.02 and 0.422 ± 0.027.
For “TTTTTTCATGATGATCATGATTTTTTTTTTTTTTTGCCGC [CGCCG]”, in that order: 0.549 ± 0.017 and 0.434 ± 0.033.
In the same order, the values of “TTTTTTGCTGATGATGATCATTTTTTTTTTTTTTTACCCG [GCCCA]” are 0.505 ± 0.03 and 0.411 ± 0.03.
In the case of “TTTTTGCAGCATCAGCATGATTTTTTTTTTTTTTTTTGTC [CTGTT]”, the background-corrected fluorescence came to 0.407 ± 0.013 (dye: Cy3 (3' terminal)) and 0.345 ± 0.024 (dye: Cy5 (3' terminal)).
For “TTTTTTCATGCTGCTGCTGATTTTTTTTTTTTTTTGAAAC [CAAAG]”, in that order: 0.43 ± 0.023 and 0.333 ± 0.045.
In the same order, the values of “TTTTTTCATCATGCGCATGATTTTTTTTTTTTTTTGGATC [CTAGG]” are 0.445 ± 0.019 and 0.35 ± 0.055.
For “TTTTTTGAGCATGCTGCGCATTTTTTTTTTTTTTTCTAAT [TAATC]”, in that order: 0.542 ± 0.015 and 0.394 ± 0.027.
“TTTTTTCATGATCATGATGATTTTTTTTTTTTTTTGCGCC [CCGCG]”: the background-corrected fluorescence was determined as 0.505 ± 0.024 (dye: Cy3 (3' terminal)) and 0.4 ± 0.041 (dye: Cy5 (3' terminal)).
On to “TTTTTTCATGAGCATGCGCATTTTTTTTTTTTTTTGCTAT [TATCG]”, for which the background-corrected fluorescence is, setting by setting: (dye: Cy3 (3' terminal)) 0.52 ± 0.019; (dye: Cy5 (3' terminal)) 0.376 ± 0.035.
In the same order, the values of “TTTTTTCAGCATCATGAGCATTTTTTTTTTTTTTTGTGCT [TCGTG]” are 0.504 ± 0.024 and 0.414 ± 0.05.
For “TTTTTTGATCATGCGCATGCTTTTTTTTTTTTTTTCGATA [ATAGC]”, in that order: 0.595 ± 0.036 and 0.427 ± 0.025.
In the same order, the values of “TTTTTTGCTGCTGAGCAGCATTTTTTTTTTTTTTTAACTT [TTCAA]” are 0.523 ± 0.0097 and 0.362 ± 0.026.
Regarding “TTTTTTGATCATCATCATGCTTTTTTTTTTTTTTTCGGGA [AGGGC]”, the background-corrected fluorescence was found to be 0.7 ± 0.0078 (dye: Cy3 (3' terminal)) and 0.715 ± 0.052 (dye: Cy5 (3' terminal)).
In the same order, the values of “TTTTTTGATGATGCGCATGCTTTTTTTTTTTTTTTCCATA [ATACC]” are 0.488 ± 0.015 and 0.38 ± 0.033.
For “TTTTTTGATGCTGCGCATCATTTTTTTTTTTTTTTCAATG [GTAAC]”, in that order: 0.53 ± 0.029 and 0.364 ± 0.026.
In the same order, the values of “TTTTTTCAGCAGCATGAGCATTTTTTTTTTTTTTTGTTCT [TCTTG]” are 0.459 ± 0.012 and 0.367 ± 0.027.
Regarding “TTTTTGCATGAGCATGATCATTTTTTTTTTTTTTTTCTCG [GCTCT]”, the background-corrected fluorescence is 0.506 ± 0.02 (dye: Cy3 (3' terminal)) and 0.376 ± 0.039 (dye: Cy5 (3' terminal)).
In the same order, the values of “TTTTTTGATCAGCATCATGCTTTTTTTTTTTTTTTCGTGA [AGTGC]” are 0.634 ± 0.016 and 0.531 ± 0.037.
In the same order, the values of “TTTTTGCATGCTGCTGCTGCTTTTTTTTTTTTTTTTAAAA [AAAAT]” are 0.631 ± 0.013 and 0.52 ± 0.028.
In the same order, the values of “TTTTTTGATCAGCATGATGCTTTTTTTTTTTTTTTCGTCA [ACTGC]” are 0.547 ± 0.03 and 0.378 ± 0.032.
For the sequence “TTTTTTCATGAGCATCATCATTTTTTTTTTTTTTTGCTGG [GGTCG]”, the background-corrected fluorescence turned out to be 0.557 ± 0.039 (dye: Cy3 (3' terminal)) and 0.47 ± 0.032 (dye: Cy5 (3' terminal)).
For “TTTTTTCATCAGCATCAGCATTTTTTTTTTTTTTTGGTGT [TGTGG]”, in that order: 0.663 ± 0.02 and 0.511 ± 0.037.
In the same order, the values of “TTTTTGCATGCTGAGCATGATTTTTTTTTTTTTTTTACTC [CTCAT]” are 0.385 ± 0.03 and 0.273 ± 0.018.
In the same order, the values of “TTTTTTCATCATGCTGCTCATTTTTTTTTTTTTTTGGAAG [GAAGG]” are 0.593 ± 0.033 and 0.445 ± 0.03.
Take “TTTTTTGATGCTCAGCAGCATTTTTTTTTTTTTTTCAGTT [TTGAC]”: the background-corrected fluorescence reads like this: (dye: Cy3 (3' terminal)) 0.598 ± 0.018; (dye: Cy5 (3' terminal)) 0.434 ± 0.015.
In the same order, the values of “TTTTTGCATGATCATGCTGATTTTTTTTTTTTTTTTCGAC [CAGCT]” are 0.448 ± 0.03 and 0.378 ± 0.038.
In the same order, the values of “TTTTTTGCTCATGCTGCTGCTTTTTTTTTTTTTTTAGAAA [AAAGA]” are 0.64 ± 0.019 and 0.484 ± 0.055.
For “TTTTTGCATGCGCATCATGCTTTTTTTTTTTTTTTTATGA [AGTAT]”, in that order: 0.625 ± 0.025 and 0.579 ± 0.047.
Regarding “TTTTTTGCTGCTCATCAGCATTTTTTTTTTTTTTTAAGGT [TGGAA]”, the background-corrected fluorescence reads like this: (dye: Cy3 (3' terminal)) 0.658 ± 0.016; (dye: Cy5 (3' terminal)) 0.585 ± 0.052.
In the same order, the values of “TTTTTTCATGCGCATCATCATTTTTTTTTTTTTTTGATGG [GGTAG]” are 0.62 ± 0.012 and 0.482 ± 0.024.
